Here are results for 5 molecules from PMC12103069, “Structure predictions of MuRF1‐UBE2 complexes identify amino acid residues governing interaction selectivity for each MuRF1‐E2 pair” (The Febs Journal, 2025).

The labels stand for the following.
T1: GST-MuRF3RM (MuRF3 amino acids 1-115, RING and MFC domains) (UniProt Q9ERP3 1-115)
T1 construct: Cloned in pGEX6P3
T1 sequence (looked up): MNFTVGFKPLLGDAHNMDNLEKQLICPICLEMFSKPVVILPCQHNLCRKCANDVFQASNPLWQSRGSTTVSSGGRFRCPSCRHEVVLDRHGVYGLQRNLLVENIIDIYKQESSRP

B1: GST-MuRF1RM (MuRF1 amino acids 1-115, RING and MFC domains) (domain or fragment, Rattus norvegicus)
chain: MDYKSGLIPDGNAMENLEKQLICPICLEMFTKPVVILPCQHNLCRKCANDIFQAANPYWTNRGGSVSMSGGRFRCPSCRHEVIMDRHGVYGLQRNLLVENIIDIYKQECSSRPLQ
modifications: red fluorescent dye NT-647, covalently, by amine coupling (in the fluorescence assay only)
notes: MuRF1 / TRIM63, Rattus norvegicus, first 115 amino acids (RING and MFC domains); Cloned in pGEX6P3; Immobilised unlabelled by amine coupling in SPR; labelled with NT-647 in the fluorescence assay; also called MuRF1 (in the SPR section); not shown: GST, N-terminal, kept
B2: GST-MuRF3 (full length) (enzyme, UniProt Q9ERP3 1-366, looked up)
chain: MNFTVGFKPLLGDAHNMDNLEKQLICPICLEMFSKPVVILPCQHNLCRKCANDVFQASNPLWQSRGSTTVSSGGRFRCPSCRHEVVLDRHGVYGLQRNLLVENIIDIYKQESSRPLHAKAEQHLMCEEHEDEKINIYCLSCEVPTCSLCKVFGAHKDCEVAPLPTIYKRQKSELSDGIAMLVAGNDRVQAVITQMEEVCQTIEDNSRRQKQLLNQRFETLCAVLEERKGELLQALAREQEEKLQRVRGLIRQYGDHLEGSSKLVESAIQSMEEPQMALYLQQAKELINKVGAMSKVELAGRPEPGYESMEQFSVSVEHVAEMLRTIDFQPGAAGDEEDDDMALDGEEGNAGLEEERLDVPEGSGLH
modifications: fluorochrome, covalently (NT-647 by amine coupling in the methods; NT115 in the results)
notes: Cloned in pGEX6P3
B3: UBE2J2 cytosolic part, wild type (domain or fragment, Mus musculus, UniProt Q6P073 1-226, looked up)
chain: MSNNSNKRAPTTATQRLKQDYLRIKKDPVPYICAEPLPSNILEWHYVVRGPEMTPYEGGYYHGKLIFPREFPFKPPSIYMITPNGRFKCNTRLCLSITDFHPDTWNPAWSVSTILTGLLSFMVEKGPTLGSIETSDFTKKQLAAQSLVFNLKDKVFCELFPEVVEEIKQKQKAQDELSNRPQNLPLPDVVPDGELHRGQHGIQLLNGHAPAAGPNLAGLPQANRHH
notes: UBE2J2, Mus musculus, cytosolic part (amplified from C2C12 cells); Cloned in pET28a; also called EJ2c; source: E. coli Rosetta (DE3), purified (Ni-NTA)
B4: UBE2J1 cytosolic part, wild type (domain or fragment, Mus musculus, UniProt Q9JJZ4 1-282, looked up)
chain: METRYNLKSPAVKRLMKEAAELKDPTDHYHAQPLEDNLFEWHFTVRGPPDSDFDGGVYHGRIVLPPEYPMKPPSIILLTANGRFEVGKKICLSISGHHPETWQPSWSIRTALLAIIGFMPTKGEGAIGSLDYTPEERRALAKKSQDFCCEGCGSAMKDVLLPLKSGSGSSQADQEAKELARQISFKAEVNSSGKTIAESDLNQCFSLNDSQDDLPTTFQGATASTSYGAQNPSGAPLPQPTQPAPKNTSMSPRQRRAQQQSQRRPSTSPDVLQGQPPRAHHT
notes: UBE2J1, Mus musculus, cytosolic part (amplified from C2C12 cells); Cloned in pET28a; source: E. coli Rosetta (DE3), purified (Ni-NTA)
B5: UBE2E1 (enzyme, Mus musculus)
chain: MSDDDSRASTSSSSSSSSNQQTEKEGSTPKKKESKVSMSKNSKLLSTSAKRIQKELADITLDPPPNCSAGPKGDNIYEWRSTILGPPGSVYEGGVFFLDITFTPEYPFKPPKVTFRTRIYHCNINSQGVICLDILKDNWSPALTISKVLLSICSLLTDCNPADPLVGSIATQYMTNRAEHDRMARQWTKRYAT
notes: UBE2E1, Mus musculus, full length (amplified from C2C12 cells); Cloned in pET28a; source: E. coli Rosetta (DE3), purified (Ni-NTA)

Holding throughout (test): other fluorescence titration; change in the initial fluorescence of dye-labelled GST-MuRF (10 nM, constant) with a 16-sample serial dilution of the E2; MonolithX (NanoTemper), premium capillaries, 100% MST power, 25 °C; 50 mM HEPES pH 7.4, 150 mM NaCl, 0.005% Tween20, 0.1% dextran
Conditions in all cases: both partners purified

The target in experiment [1] is T2, UBE2L3 wild type (Mus musculus).
T2 construct: UBE2L3, Mus musculus, full length (amplified from C2C12 cells); Cloned in pET28a; source: E. coli Rosetta (DE3), purified (Ni-NTA)

Experiment [2] has as its target B2.
The target of experiment [3] is B1.
In experiment [4] the target is T1, GST-MuRF3RM (MuRF3 amino acids 1-115, …).

As to B1, the binding result in experiment [1] was “binds”.

For the molecule B2, the dissociation constant Kd in experiment [1] came out at 400 nM.

For the molecule B3, the dissociation constant Kd in experiment [2] was 24800 nM. In other words, the double-digit micromolar range.

For B4, binding in experiment [2] was put at a Kd of 400 nM.

For B5, the Kd in experiment [3] is 400 nM; in experiment [4] it was 500 nM.
